Source: publication PMC2844450
Each block holds one molecule with its values, some of them ahead of it.

Columns and labels:
Assay in all cases: enzyme inhibition kinetics
[1] = molecular target: Factor Xa (activated factor X), plasma protein
[2] = molecular target: fXa-D189S (factor Xa with Asp-189 replaced by Ser)
[3] = molecular target: Bovine α-chymotrypsin (bovine)
[4] = molecular target: Factor Xa (activated factor X), plasma protein; remark: listed apart in the source
[5] = molecular target: fXa-D189S (factor Xa with Asp-189 replaced by Ser); remark: listed apart in the source

k2 (second-order rate constant of inhibition), presence of PZ [1]: 780000 | k2 (second-order rate constant of inhibition), presence of PZ [2]: 830000
Molecule: ZPI in complex with protein Z (PZ) (from UniProt Q9UK55 22-444; P22891 41-400)

k2 (second-order association rate constant of inhibition), no heparin [3]: 83 M⁻¹ s⁻¹ | k2 (second-order association rate constant of inhibition), no heparin [1]: 3090 M⁻¹ s⁻¹ | k2 with heparin [1]: 4.35e+07 M⁻¹ s⁻¹ | KD with heparin (ternary encounter complex, first step) [2]: 194 nM | k2 with heparin [2]: 1.02e+06 M⁻¹ s⁻¹ | k2 with heparin (k/KD) [2]: 1e+06 M⁻¹ s⁻¹
Molecule: Human wild-type antithrombin (from UniProt P01008 33-464) (natural protein)

k2 (second-order rate constant of inhibition), absence of PZ [4]: 1900 | k2 (second-order rate constant of inhibition), absence of PZ [5]: 2300
B1: Protein Z-dependent protease inhibitor, wild type (natural protein)
chain: LAPSPQSPETPAPQNQTSRVVQAPKEEEEDEQEASEEKASEEEKAWLMASRQQLAKETSNFGFSLLRKISMRHDGNMVFSPFGMSLAMTGLMLGATGPTETQIKRGLHLQALKPTKPGLLPSLFKGLRETLSRNLELGLTQGSFAFIHKDFDVKETFFNLSKRYFDTECVPMNFRNASQAKRLMNHYINKETRGKIPKLFDEINPETKLILVDYILFKGKWLTPFDPVFTEVDTFHLDKYKTIKVPMMYGAGKFASTFDKNFRCHVLKLPYQGNATMLVVLMEKMGDHLALEDYLTTDLVETWLRNMKTRNMEVFFPKFKLDQKYEMHELLRQMGIRRIFSPFADLSELSATGRNLQVSRVLQRTVIEVDERGTEAVAGILSEITAYSMPPVIKVDRPFHFMIYEETSGMLLFLGRVVNPTLL
